Positions count from the first letter of the chain named. Numbers in names are those of the source.
B1: Ver. 11.1: thermostable 1,5-AG dehydrogenase; SEQ ID NO: 1 having an arginine residue in place of proline at position 156 (protein)
chain: MEFAGQPDIVIIGTGIGGASIAAGLSASGADILILERGESLPDRPENRDQHAIFQRGFFRPKEFWYGTDGTPFNPGNYYYVGGNSKFYGAVLMRYRREDFEELAHLEGVSPAWPFAYDELEPWYCKAEELFQVRGELGDDPTEPYHSKPYSYPAIRDESPIADMRARLKKAGLHPASLPLGVDIERWLAKAKTPWDAHPNSDDGKMDAETCPLALALKHPNVGLETSARVTKLEAGPDGKTIVAVHYVKNGEALVLRPKLVILSAGAVQSAALLLRSGLANRSDQVGRNFMNHNASAVIGFDPRYRNDSVYQKTFGFNDYYLSDGAGGPPLGNVQLLGRVSGAILKSYMRQVPEWFLNRIARHTIDFYAMSEDLPSPESRVSVDGDRIILHWVRSNWKAHLMLVDKLKSALRAAGFPVVLSRAFDRRTPSHQCGTVRIGDNPATAPLDPYCRAYDHPNLYVVDASFLPTSAAANPALTIAAQALRVADHLNREVLA
modifications: Protein expressed by mutated 1,5-anhydroglucitol dehydrogenase gene
B2: Ver. 11.0: thermostable 1,5-AG dehydrogenase; SEQ ID NO: 1 having arginine at position 156 and valine at position 473 (protein)
chain: B1 chain with A473V
modifications: Protein expressed by mutated 1,5-anhydroglucitol dehydrogenase gene
B3: Ver. 12.0: thermostable 1,5-AG dehydrogenase comprising the amino acid sequence represented by SEQ ID NO: 1 (protein)
chain: B1 chain with R156P
modifications: Protein expressed by mutated 1,5-anhydroglucitol dehydrogenase gene
B4: Ver. 0: recombinant parent strain (Pseudomonas sp. NK-85001)-derived 1,5-AG dehydrogenase, SEQ ID NO: 4, no thermostability (protein)
chain: MEFGGQPDIVIIGSGIGGASIAAGLSASGADILILEAGESLPDRPENRDPHAIFQRGFFRPKEFWYETDGTPFNPGNYYNVGGNSKFYGAVLVRYRREDFEELAHLEGVSPAWPFAYDELEPWYCKAEELFQVRGELGDDPTEPYHSKPYSYPAIRDESPIADLRARLKKAGLHPASLPLGVDIERWLAKAKTPWDAHPNSNDGKMDAETCPLALALKHPNVGLETSARVTKLETGPDGKTIVAVHYVKNGEALVLRPKLVILSAGAVQSAALLLRSGLANRSDQVGRNFMNHNASAVIGFDPRYRNDSVYQKTFGFNDYYLSDGAGGPPLGNVQLLGRVSGAILKSNMRQVPEWFLNRIAGHTIDFYAMSEDLPSPESRVSVDGDRIILHWVRSNWKAHLMLVDKLKSALRAAGFPVVLSRAFDRRTPSHQCGTVRIGDNPATAPLDPYCRAYDHPNLYVVDASFLPTSAAVNPALTIAAQALRVADHLNREVLA
modifications: Pseudomonas sp. NK-85001
B5: Ver. 2.0: thermostable 1,5-AG dehydrogenase, SEQ ID NO: 22; net vs SEQ ID NO: 4: Q6H, A37T, P50Q (protein)
chain: B4 chain with Q6H, A37T, P50Q
modifications: Mutated 1,5-anhydroglucitol dehydrogenase gene
B6: Ver. 3.2: thermostable 1,5-AG dehydrogenase, protein 17); net vs SEQ ID NO: 4: A37T, P50Q, L164M, G362R (protein)
chain: B4 chain with A37T, P50Q, L164M, G362R
modifications: Pseudomonas sp. NK-85001
B7: Ver. 7.1: thermostable 1,5-AG dehydrogenase, SEQ ID NO: 23; Ver. 7.0 plus G4A (protein)
chain: B1 chain with R37T, G67E, Y80N, D202N, A473V
modifications: Mutated 1,5-anhydroglucitol dehydrogenase gene
notes: Ver; 7.0 plus G4A
B8: Ver. 3.0: thermostable 1,5-AG dehydrogenase, protein 19); net vs SEQ ID NO: 4: A37T, P50Q, G362R (protein)
chain: B4 chain with A37T, P50Q, G362R
modifications: Pseudomonas sp. NK-85001
B9: Ver. 3.1: thermostable 1,5-AG dehydrogenase, protein 18); net vs SEQ ID NO: 4: A37T, P50Q, L164M (protein)
chain: B4 chain with A37T, P50Q, L164M
modifications: Pseudomonas sp. NK-85001

Experiments:
[1] = test system: 1,5-AG dehydrogenase (Ver. 0); test: Substrate specificity of parent strain-derived 1,5-AG dehydrogenase; assay type: biochemical, Pseudomonas sp. NK-85001; conditions: activity for 1,5-AG as 100%; Ver. 0, 40%-saturated ammonium sulfate precipitate fraction
Experimental: (§1) The components other than the crude enzyme solution are mixed and kept at 37° C. for 10 minutes. Then, the crude enzyme solution is added to the reaction solution to initiate reaction. Decrease in absorbance at 600 nm for 1 minute with the temperature kept at 37° C. is determined.
A precipitate fraction of 40%-saturated ammonium sulfate was collected by centrifugation and dissolved in a 50 mM sodium phosphate buffer, pH 7.5.

[2] = 1,5-AG dehydrogenase activity determination of crude enzyme solution (L-sorbose, DCIP, 1-m-PMS, decrease in absorbance at 600 nm); assay type: biochemical
Experimental: The E. coli JM109 strains transformed with the pTrc-PS15DH vectors confirmed in the paragraph (I) to have the insert fragment were inoculated to 3 mL of an LB medium containing 100 μg/mL ampicillin and cultured at 28° C. for 14 hours. Of this culture solution, a 0.2 mL aliquot was inoculated to 10 mL of an LB medium (containing 100 μg/mL ampicillin). Approximately 3 hours later, the rise of OD600 of the culture solution to 0.4 to 0.7 was confirmed, and 1,5-AG dehydrogenase expression in E. coli was then induced by the addition of 0.1 M IPTG (final concentration: 0.1 mM) to the medium. This culture solution was further cultured overnight at 28° C. and centrifuged at 10000×g for 5 minutes to precipitate cells. The supernatant was removed, and the pellet was then washed twice with a 0.85% aqueous NaCl solution. Cells were precipitated by centrifugation. Then, the microbial cells were suspended in 1 mL of a 50 mM sodium phosphate buffer, pH 7.5. Triton X-100 was added thereto at a concentration of 0.25%, and the microbial cells were disrupted using a bead impact-type cell disrupter MINI-BEAD BEATER (30 seconds×4, manufactured by Central Scientific Commerce, Inc.) while cooled in ice. After centrifugation at 20000×g for 10 minutes, the supernatant was examined as a crude enzyme solution for its 1,5-AG dehydrogenase activity. The composition of the reaction solution is as described below. Since the 1,5-AG dehydrogenase also reacts with L-sorbose as its substrate, L-sorbose was used for convenience instead of 1,5-AG in the enzymatic activity determination.
Composition of Reaction Solution:
as §1
The enzymatic activity can be determined according to the following equation: Enzymatic activity (U/mL)=(Δ600/min×0.6 (mL)×dilution ratio of crude enzyme solution)/(16.3×0.01 (mL)).
(§2) The E. coli JM109 containing the gene encoding each thermostable 1,5-AG dehydrogenase obtained in the paragraphs to [4] of EXAMPLE 2 was transplanted to 10 mL of an LB liquid medium containing 50 μg/mL ampicillin and 0.1 mM IPTG and shake-cultured at 30° C. for 16 hours. 10 mL of the shake-culture solution was centrifuged at 10000 rpm for 5 minutes. The culture supernatant was removed, and the pellet was then washed twice with a 0.85% aqueous NaCl solution. These microbial cells were suspended in 1 mL of a 50 mM sodium phosphate buffer (pH 7.5) containing 0.25% Triton X-100. The microbial cells were disrupted using a bead impact-type cell disrupter MINI-BEAD BEATER (30 seconds×4, manufactured by Central Scientific Commerce, Inc.) while cooled in ice. After centrifugation at 15000 rpm for 10 minutes, the supernatant was used as a crude enzyme solution. When the crude enzyme solution was heat-treated, the treatment was performed for 10 minutes in a water bath of 45° C., 50° C., 55° C. or 60° C.
(§3) The enzymatic activity of the 1,5-AG dehydrogenase was calculated by measurement by the same approach as that described in the paragraph (J) of EXAMPLE 1.
(§4) A specific activity that represents the enzymatic activity of the 1,5-AG dehydrogenase per mg of the crude enzyme solution was calculated according to the following equation: Specific activity (U/mg)=enzymatic activity (U/mL)/protein concentration of crude enzyme solution (mg/mL). Moreover, the rate of residual activity was calculated according to the following equation: Rate of residual activity (%)=(specific activity of crude enzyme solution after heat treatment/specific activity of crude enzyme solution before heat treatment)×100.
The 1,5-AG dehydrogenase activity was determined based on the method described in EXAMPLE 1, and its specific activity was determined according to the equation described in EXAMPLE 3.

[3] = Stability of thermostable 1,5-AG dehydrogenase at heat treatment temperature (rate of residual activity); assay type: physicochemical; conditions: for Rate of residual activity after 10-minute treatment at 60° C. / Rate of residual activity after 10-minute treatment at 45° C. / Rate of residual activity after 10-minute treatment at 50° C. / Rate of residual activity after 10-minute treatment at 55° C.: crude enzyme solution, 10 minutes; for Rate of residual activity after 10-minute treatment at 60° C.: water bath 60° C.; for Rate of residual activity after 10-minute treatment at 45° C.: water bath 45° C.; for Rate of residual activity after 10-minute treatment at 50° C.: water bath 50° C.; for Rate of residual activity after 10-minute treatment at 55° C.: water bath 55° C.
Experimental: as §2, §3, §4

[4] = crude enzyme solution, L-sorbose as substrate, 37° C.

Molecule	Relative activity [1] [%]	Specific activity [2, 4] [U/mg]	Rate of residual activity after 10-minute treatment at 45° C. [3] [%]	further results
O=C(CO)[C@@H](O)[C@H](O)[C@@H](O)CO [L-sorbose]	54	–	–	–
OC[C@H]1OC[C@H](O)[C@@H](O)[C@@H]1O [1,5-AG, 1,5-anhydroglucitol]	100	–	–	–
OC[C@H]1O[C@H](O[C@H]2[C@H](O)[C@@H](O)C(O)O[C@@H]2CO)[C@H](O)[C@@H](O)[C@@H]1O (mixture of isomers) [Maltose]	0.2	–	–	–
O=C[C@H](O)[C@@H](O)[C@H](O)CO [Xylose]	0	–	–	–
O=C[C@H](O)[C@@H](O)[C@@H](O)[C@H](O)CO [Galactose]	0	–	–	–
OC[C@@H](O)[C@H](O)[C@@H](O)CO [Xylitol]	0	–	–	–
B1	–	0.8	–	Rate of residual activity after 10-minute treatment at 60° C. [3]: 73%
B2	–	3.4	97.0	Rate of residual activity after 10-minute treatment at 50° C. [3]: 97.0%; Rate of residual activity after 10-minute treatment at 55° C. [3]: 81.0%
B3	–	1.2	–	Rate of residual activity after 10-minute treatment at 60° C. [3]: 76%
B4	–	1.2	3.0	Enzymatic activity of the crude enzyme solution ([2]; E. coli JM109 / pTrc-PS15DH, L-sorbose as substrate, 37° C.): 4.4 U/mL
B5	–	1.4	31.0	Specific activity ([2]; purification step: CFE (cell-free extracts)): 4.39 U/mg; Specific activity ([2]; purification step: ammonium sulfate precipitation): 13.8 U/mg; Specific activity ([2]; purification step: desalting and concentration): 13.5 U/mg; Specific activity ([2]; purification step: weak anion-exchange chromatography (DEAE FF)): 13.5 U/mg
B6	–	2.0	68.0	Thermostability compared with the version(s) it was prepared from ([3]; Ver. 4.0 vs Ver. 3.2, Ver. 3.2 vs Ver. 3.0 and Ver. 3.1): improved thermostability; Rate of residual activity after 10-minute treatment at 50° C. [3]: 14.0%
B7	–	2.8	89.0	Rate of residual activity after 10-minute treatment at 50° C. [3]: 61.0%; Rate of residual activity after 10-minute treatment at 55° C. [3]: 10.0%
B8	–	2.8	40.0	–
B9	–	1.2	54.0	–

— US8574882B2, “Thermostable 1,5-anhydroglucitol dehydrogenase, and method for measurement of 1,5-anhydroglucitol by using the same” (Nippon Kayaku Kabushiki Kaisha, priority 2008, dated 2013)
